# B1: glucose oxidase (GOx), Aspergillus niger type VIII (Aspergillus niger) (protein)
# chain: LPHYIRSNGIEASLLTDPKDVSGRTVDYIIAGGGLTGLTTAARLTENPNISVLVIESGSYESDRGPIIEDLNAYGDIFGSSVDHAYETVELATNNQTALIRSGNGLGGSTLVNGGTWTRPHKAQVDSWETVFGNEGWNWDNVAAYSLQAERARAPNAKQIAAGHYFNASCHGVNGTVHAGPRDTGDDYSPIVKALMSAVEDRGVPTKKDFGCGDPHGVSMFPNTLHEDQVRSDAAREWLLPNYQRPNLQVLTGQYVGKVLLSQNGTTPRAVGVEFGTHKGNTHNVYAKHEVLLAAGSAVSPTILEYSGIGMKSILEPLGIDTVVDLPVGLNLQDQTTATVRSRITSAGAGQGQAAWFATFNETFGDYSEKAHELLNTKLEQWAEEAVARGGFHNTTALLIQYENYRDWIVNHNVAYSELFLDTAGVASFDVWDLLPFTRGYVHILDKDPYLHHFAYDPQYFLNELDLLGQAAATQLARNISNSGAMQTYFAGETIPGDNLAYDADLSAWTEYIPYHFRPNYHGVGTCSMMPKEMGGVVDNAARVYGVQGLRVIDGSIPPTQMSSHVMTVFYAMALKISDAILEDYASMQ
# notes: commercial native enzyme, Merck/Sigma Aldrich, type VIII; free in solution, together with HRP
# Substrate: OC[C@H]1OC(O)[C@H](O)[C@@H](O)[C@@H]1O
# Experiment: purified protein
# Type: biochemical, Aspergillus niger
# Settings: apparent Km of the whole cascade with free HRP, glucose 50-175 µM (all below Km), TMB 2 mM, 0.2 M acetate buffer (pH 4 in the standard assay), 20-23 °C, free enzymes
protein,measurement,value
B1,Km,1198 µM

# From publication PMC9864776, “Synthesis of Novel Polymer-Assisted Organic-Inorganic Hybrid Nanoflowers and Their Application in Cascade Biocatalysis” (Molecules, 2023)
